Measurements: PMC4117426, “SlmA Antagonism of FtsZ Assembly Employs a Two-pronged Mechanism like MinCD” (PLoS Genetics, 2014)
One block for each binder: values may come before it.

B1: FtsZ (natural protein, E. coli, UniProt P0A9A6 1-383, looked up)
chain: MFEPMELTNDAVIKVIGVGGGGGNAVEHMVRERIEGVEFFAVNTDAQALRKTAVGQTIQIGSGITKGLGAGANPEVGRNAADEDRDALRAALEGADMVFIAAGMGGGTGTGAAPVVAEVAKDLGILTVAVVTKPFNFEGKKRMAFAEQGITELSKHVDSLITIPNDKLLKVLGRGISLLDAFGAANDVLKGAVQGIAELITRPGLMNVDFADVRTVMSEMGYAMMGSGVASGEDRAEEAAEMAISSPLLEDIDLSGARGVLVNITAGFDLRLDEFETVGNTIRAFASDNATVVIGTSLDPDMNDELRVTVVATGIGMDKRPEITLVTNKQVQQPVMDRYQQHGMAPLTQEQKPVAKVVNDNAPQTAKEPDYLDIPAFLRKQAD
notes: FtsZ, E. coli, untagged, from pSEB160; also called FtsZ-WT; WT FtsZ
B4: 6×His-FtsZ (natural protein, E. coli, UniProt P0A9A6 1-383, looked up)
chain: MFEPMELTNDAVIKVIGVGGGGGNAVEHMVRERIEGVEFFAVNTDAQALRKTAVGQTIQIGSGITKGLGAGANPEVGRNAADEDRDALRAALEGADMVFIAAGMGGGTGTGAAPVVAEVAKDLGILTVAVVTKPFNFEGKKRMAFAEQGITELSKHVDSLITIPNDKLLKVLGRGISLLDAFGAANDVLKGAVQGIAELITRPGLMNVDFADVRTVMSEMGYAMMGSGVASGEDRAEEAAEMAISSPLLEDIDLSGARGVLVNITAGFDLRLDEFETVGNTIRAFASDNATVVIGTSLDPDMNDELRVTVVATGIGMDKRPEITLVTNKQVQQPVMDRYQQHGMAPLTQEQKPVAKVVNDNAPQTAKEPDYLDIPAFLRKQAD
notes: FtsZ, E. coli; 6×His-tagged ftsZ amplified from pSEB160 (pSD119); By the printed primer the six His codons follow the start codon and precede Phe2; also called 6×His-tagged FtsZ-FL; source: E. coli JS238 with pSD119, purified (Ni-NTA); not shown: His6, N-terminal, kept

Assays:
[1] = molecular target: the molecule itself; test: negative-stain electron microscopy of polymers; FtsZ or variant 2 µM with 1 mM GTP in Pol buffer (50 mM HEPES-NaOH pH 8.0, 200 mM KCl, 10 mM MgCl2), room temperature 5 min, 1% uranyl acetate; self-assembly into filaments
[2] = molecular target: T1, 6×His-FtsZ-K190V (E. coli, UniProt P0A9A6 1-383, K190V); test: BLI; 6×His-FtsZ or variant (1 µM) immobilised on Ni-NTA tips; untagged SlmA preincubated with SBS17-30mer DNA in solution; 1× Pol buffer, room temperature; global fitting; conditions: both partners purified
T1 construct: FtsZ, E. coli, His-tagged, with K190V; the construct is not described in the methods; Probably a derivative of pSD119 (N-terminal His6, full length)
T1 sequence (looked up): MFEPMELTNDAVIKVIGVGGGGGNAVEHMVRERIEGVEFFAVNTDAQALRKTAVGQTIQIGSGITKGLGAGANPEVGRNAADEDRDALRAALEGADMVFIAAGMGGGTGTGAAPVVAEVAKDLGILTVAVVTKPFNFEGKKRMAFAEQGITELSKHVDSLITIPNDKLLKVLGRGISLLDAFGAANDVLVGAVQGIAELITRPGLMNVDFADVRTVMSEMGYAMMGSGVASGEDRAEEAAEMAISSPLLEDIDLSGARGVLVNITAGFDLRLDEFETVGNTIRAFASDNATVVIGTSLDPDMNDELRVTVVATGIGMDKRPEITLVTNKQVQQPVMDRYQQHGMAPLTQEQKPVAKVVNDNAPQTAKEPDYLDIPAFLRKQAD

[3] = molecular target: B4; test: as above; conditions: both partners purified
[4] = molecular target: T2, 6×His-FtsZ (E. coli, UniProt P0A9A6 1-383); test: BLI; 6×His-FtsZ (loaded at 1 µM) immobilised on Ni-NTA biosensor; untagged SlmA preincubated with SBS17-30mer DNA in solution; 1× Pol buffer (50 mM HEPES-NaOH pH 8.0, 200 mM KCl, 10 mM MgCl2), room temperature; global fit (GraphPad Prism 5); conditions: both partners purified
T2 construct: FtsZ of E. coli, full length (FtsZ-FL), with an N-terminal 6×His tag, from pSD119; By the primer His-FtsZ-SstI the chain begins M-HHHHHH and goes on with F2 of FtsZ (FEPMELT...); also called 6×His-tagged FtsZ-FL; source: E. coli JS238 with pSD119, arabinose induced, purified (Ni-NTA); not shown: His6, N-terminal, kept
T2 sequence (looked up): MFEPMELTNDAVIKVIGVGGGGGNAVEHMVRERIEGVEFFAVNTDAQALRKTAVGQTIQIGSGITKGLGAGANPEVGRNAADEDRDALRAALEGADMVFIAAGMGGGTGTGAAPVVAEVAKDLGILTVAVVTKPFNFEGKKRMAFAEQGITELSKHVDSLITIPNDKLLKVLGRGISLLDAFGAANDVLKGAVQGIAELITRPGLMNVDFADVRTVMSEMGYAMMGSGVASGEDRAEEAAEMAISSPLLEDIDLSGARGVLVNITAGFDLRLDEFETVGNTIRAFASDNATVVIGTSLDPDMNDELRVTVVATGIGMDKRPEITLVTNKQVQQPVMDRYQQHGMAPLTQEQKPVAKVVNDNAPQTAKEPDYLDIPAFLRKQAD

[5] = molecular target: T2, 6×His-FtsZ; test: BLI; 6×His-FtsZ (loaded at 1 µM) immobilised on Ni-NTA biosensor; untagged SlmA without SBS DNA in solution; 1× Pol buffer (50 mM HEPES-NaOH pH 8.0, 200 mM KCl, 10 mM MgCl2), room temperature; global fit (GraphPad Prism 5); conditions: both partners purified
[6] = molecular target: T2, 6×His-FtsZ; test: BLI; 6×His-FtsZ (loaded at 1 µM) immobilised on Ni-NTA biosensor; untagged SlmA preincubated with SBS-14mer DNA in solution; 1× Pol buffer (50 mM HEPES-NaOH pH 8.0, 200 mM KCl, 10 mM MgCl2), room temperature; global fit (GraphPad Prism 5); conditions: both partners purified
[7] = molecular target: T2, 6×His-FtsZ; test: BLI; 6×His-FtsZ (loaded at 1 µM) immobilised on Ni-NTA biosensor; untagged SlmA preincubated with SBS17-20mer DNA in solution; 1× Pol buffer (50 mM HEPES-NaOH pH 8.0, 200 mM KCl, 10 mM MgCl2), room temperature; global fit (GraphPad Prism 5); conditions: both partners purified
[8] = molecular target: T2, 6×His-FtsZ; test: BLI; 6×His-FtsZ (loaded at 1 µM) immobilised on Ni-NTA biosensor; untagged SlmA preincubated with SBS-18mer DNA in solution; 1× Pol buffer (50 mM HEPES-NaOH pH 8.0, 200 mM KCl, 10 mM MgCl2), room temperature; global fit (GraphPad Prism 5); conditions: both partners purified
[9] = molecular target: B1; test: BLI; competition: SlmA/SBS17-30mer on streptavidin tips; 4 µM FtsZ preincubated with various concentrations of ZipA185-328 (with GDP); conditions: both partners purified

Binder: B1
binding result [1]: binds

B2: FtsZ-D86N (natural protein, E. coli, UniProt P0A9A6 1-383, looked up)
chain: MFEPMELTNDAVIKVIGVGGGGGNAVEHMVRERIEGVEFFAVNTDAQALRKTAVGQTIQIGSGITKGLGAGANPEVGRNAADEDRNALRAALEGADMVFIAAGMGGGTGTGAAPVVAEVAKDLGILTVAVVTKPFNFEGKKRMAFAEQGITELSKHVDSLITIPNDKLLKVLGRGISLLDAFGAANDVLKGAVQGIAELITRPGLMNVDFADVRTVMSEMGYAMMGSGVASGEDRAEEAAEMAISSPLLEDIDLSGARGVLVNITAGFDLRLDEFETVGNTIRAFASDNATVVIGTSLDPDMNDELRVTVVATGIGMDKRPEITLVTNKQVQQPVMDRYQQHGMAPLTQEQKPVAKVVNDNAPQTAKEPDYLDIPAFLRKQAD
notes: FtsZ, E. coli, untagged, with D86N; pSEB160 derivative
binding result [1]: binds

B3: FtsZ-K190V (natural protein, E. coli, UniProt P0A9A6 1-383, looked up)
chain: MFEPMELTNDAVIKVIGVGGGGGNAVEHMVRERIEGVEFFAVNTDAQALRKTAVGQTIQIGSGITKGLGAGANPEVGRNAADEDRDALRAALEGADMVFIAAGMGGGTGTGAAPVVAEVAKDLGILTVAVVTKPFNFEGKKRMAFAEQGITELSKHVDSLITIPNDKLLKVLGRGISLLDAFGAANDVLVGAVQGIAELITRPGLMNVDFADVRTVMSEMGYAMMGSGVASGEDRAEEAAEMAISSPLLEDIDLSGARGVLVNITAGFDLRLDEFETVGNTIRAFASDNATVVIGTSLDPDMNDELRVTVVATGIGMDKRPEITLVTNKQVQQPVMDRYQQHGMAPLTQEQKPVAKVVNDNAPQTAKEPDYLDIPAFLRKQAD
notes: FtsZ, E. coli, untagged, with K190V; pSEB160 derivative
binding result [1]: binds

Binder: B4
binding result [1]: binds

B5: 6×His-FtsZ360 (domain or fragment, E. coli, UniProt P0A9A6 1-360, looked up)
chain: MFEPMELTNDAVIKVIGVGGGGGNAVEHMVRERIEGVEFFAVNTDAQALRKTAVGQTIQIGSGITKGLGAGANPEVGRNAADEDRDALRAALEGADMVFIAAGMGGGTGTGAAPVVAEVAKDLGILTVAVVTKPFNFEGKKRMAFAEQGITELSKHVDSLITIPNDKLLKVLGRGISLLDAFGAANDVLKGAVQGIAELITRPGLMNVDFADVRTVMSEMGYAMMGSGVASGEDRAEEAAEMAISSPLLEDIDLSGARGVLVNITAGFDLRLDEFETVGNTIRAFASDNATVVIGTSLDPDMNDELRVTVVATGIGMDKRPEITLVTNKQVQQPVMDRYQQHGMAPLTQEQKPVAKVVND
notes: FtsZ, E. coli, truncated by two stop codons after codon 360; lacks the conserved C-terminal tail; source: E. coli JS238 with pSD119-Z360, purified (Ni-NTA); not shown: His6, N-terminal, kept
binding result [1]: binds

binding result [2]: binds
Kd [3]: 210 nM
B6: untagged SlmA (natural protein, E. coli, UniProt P0C093 1-198, looked up)
chain: MAEKQTAKRNRREEILQSLALMLESSDGSQRITTAKLAASVGVSEAALYRHFPSKTRMFDSLIEFIEDSLITRINLILKDEKDTTARLRLIVLLLLGFGERNPGLTRILTGHALMFEQDRLQGRINQLFERIEAQLRQVLREKRMREGEGYTTDETLLASQILAFCEGMLSRFVRSEFKYRPTDDFDARWPLIAAQLQ
notes: SlmA, E. coli; Used with or without SBS DNA on 6×His-FtsZ tips; also called SlmA (untagged version); source: E. coli BL21 (λDE3)/pLysS with pSUMO-SlmA, purified (Ni-NTA; tag cleaved with Ulp1, flow-through collected)

koff [4]: 0.0155 s⁻¹
kon [4]: 74000 M⁻¹ s⁻¹
Kd [5]: 21000 nM
koff [5]: 0.149 s⁻¹
kon [5]: 7100 M⁻¹ s⁻¹
Kd [6]: 206 nM
koff [6]: 0.0057 s⁻¹
kon [6]: 27500 M⁻¹ s⁻¹
Kd [7]: 789 nM
koff [7]: 0.0143 s⁻¹
kon [7]: 18100 M⁻¹ s⁻¹
Kd [8]: 309 nM
koff [8]: 0.0067 s⁻¹
kon [8]: 21600 M⁻¹ s⁻¹
B7: SlmA (untagged version) (natural protein, E. coli, UniProt P0C093 1-198, looked up)
chain: MAEKQTAKRNRREEILQSLALMLESSDGSQRITTAKLAASVGVSEAALYRHFPSKTRMFDSLIEFIEDSLITRINLILKDEKDTTARLRLIVLLLLGFGERNPGLTRILTGHALMFEQDRLQGRINQLFERIEAQLRQVLREKRMREGEGYTTDETLLASQILAFCEGMLSRFVRSEFKYRPTDDFDARWPLIAAQLQ
notes: SlmA of E. coli; The forward primer slmA-SUMO-F begins at the second codon (GCA, Ala2), so the cleaved protein probably lacks the first methionine; also called SlmA-WT; nucleoid occlusion factor SlmA; source: E. coli BL21 (λDE3)/pLysS with pSUMO-SlmA, purified (Ni-NTA; H-SUMO tag cleaved with Ulp1, tag and protease removed on Ni-NTA); not shown: His-SUMO (H-SUMO), N-terminal, cleaved

percent decrease of the FtsZ binding signal on SlmA/SBS17-30mer at a 1:1 ratio of FtsZ to ZipA185-328 [9]: ~30%
B8: ZipA_(185–328) (domain or fragment)
chain: not shown
notes: amplified from chromosomal DNA; also called C-terminal domain of ZipA; source: expressed from pSD198 (pQE80 derivative)
